In article PMC11414720 one finds stoichiometry N data, which are given here for one substance.

The target in the assay is TMED2 (overexpressed) (UniProt Q15363). Nature of the assay: SEC; gel filtration of overexpressed protein in octyl-β-glucoside, a harsher detergent.

Chain of TMED2 (overexpressed), Q15363 21-201 (receptor; other documents disagree on this pair) (Q15363 21-201): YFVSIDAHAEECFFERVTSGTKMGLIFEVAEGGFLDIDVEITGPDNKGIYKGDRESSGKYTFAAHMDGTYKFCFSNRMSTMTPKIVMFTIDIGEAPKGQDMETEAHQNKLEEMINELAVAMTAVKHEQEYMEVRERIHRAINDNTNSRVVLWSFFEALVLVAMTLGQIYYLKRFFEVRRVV

Turning to “TMED2 (overexpressed), Q15363 21-201 (receptor; other documents disagree on this pair)”, the stoichiometry N came to 2.
